# Measured values: patent US8110402B2, “Metal abstraction peptide (MAP) tag and associated methods” (University of Kansas, priority 2008, dated 2012)
# Residue numbers refer to the chain shown, from its start. In names and notes the source's numbering stands. Where a SMILES comes first, the peptide text is derived from it. [ ]: non-standard residue; d: D form.
# B1: PRL-1: recombinant wild-type human PRL-1 protein containing the C-terminal NCC motif (protein, UniProt Q93096 1-170, looked up)
# Protein tyrosine phosphatase …: MARMNRPAPVEVTYKNMRFLITHNPTNATLNKFIEELKKYGVTTIVRVCEATYDTTLVEKEGIHVLDWPFDDGAPPSNQIVDDWLSLVKIKFREEPGCCIAVHCVAGLGRAPVLVALALIEGGMKYEDAVQFIRQKRRGAFNSKQLLYLEKYRPKMRLRFKDSNGHRNNC
# B2: PRL-1-H166A: PRL-1 mutant with His166 of the NGH motif replaced by Ala (protein, UniProt Q93096 1-170, looked up, variant H166A)
# Protein tyrosine phosphatase …: B1 Protein tyrosine phosphatase … with H166A
# B3: C170S: PRL-1 mutant with Cys170 replaced by Ser (protein, UniProt Q93096 1-170, looked up, variant C170S)
# Protein tyrosine phosphatase …: B1 Protein tyrosine phosphatase … with C170S
# B4: Apo PRL-1: PRL-1 protein without bound metal (protein, UniProt Q93096 1-170, looked up)
# Protein tyrosine phosphatase …: B1 Protein tyrosine phosphatase …
# modifications: apo form, no bound metal
# What was measured:
# [1] = UV-Vis absorption spectroscopy of Ni coordination; assay type: binding
# Procedure: UV-Vis absorption spectra were used to measure the concentration of the PRL-1 protein. Briefly, the concentrations of purified PRL-1 analogs were measured at 280 nm and calculated using an extinction coefficient of 19420 M^−1 cm^−1. Because of possible metal-protein absorption interferences in the high 200 nm region, the validity of the UV-Vis quantification method was confirmed by the Bradford method. Spectra of PRL-1 analogs at concentrations of 10, 5, 2.5, and 1.25 mg/mL were collected on a Cary 100 UV-Vis spectrophotometer from 800 to 200 nm. […] The resulting spectra were resolved and peak positions were evaluated using GRAMS/AI 7.00 software. Three methods were aimed at metal displacement. In the first, PRL-1-WT (e.g., wild type) samples were reduced using 20 mM β-mercaptoethanol (BME), and imidazole was added to a concentration of 10 mM. For […] protein samples, this corresponds to […] solution excess of BME to compete with the two C-terminal cysteine thiols and a 200-fold solution excess of imidazole to compete with the single C-terminal histidine imidazole side chain. New baselines were taken and the spectra recalculated. In the second method, baselines were recalculated for buffer containing 100 μM EDTA, and the spectrum for the PRL-1-WT sample that was exchanged ten million fold in 100 μM EDTA was recorded. […]
# [2] = ICP-MS of metal bound to purified PRL-1 variants (Ni); assay type: binding; details: for Ni bound (ICP-MS): PRL-1 variants analyzed in parallel, Ni-IMAC purified
# Procedure: (§1) ICP-MS was used to characterize the bound metal. Briefly, purified protein samples were digested in concentrated nitric acid in PFA microcentrifuge tubes (Savillex, #s 7240, 7241) at 68±1° C. for 16.5±0.7 hours. Based on protein quantification prior to digestion, the sample was then diluted to 1.5 μM in 20 mM ammonium bicarbonate, pH 8.2, filtered through a 0.2 μm nylon filter, and injected into a VG Elemental VGII+XS Inductively-Coupled Plasma-Mass Spectrometer fitted with a microconcentric nebulizer. A minimum of two separately prepared samples were analyzed for each protein variant. Each sample was scanned twice and standards were run before, between, and after each sample scan. Drift was monitored during washes between scans of both sample and standard injections.
# To investigate our hypothesis that the chromophore arises from protein abstraction of the metal from the charged IMAC matrix, samples were subjected to ICP-MS for semi-quantitative analysis. As extensive washing is used to remove background metals, the values obtained from this method inherently underestimate the amount of metal bound, but can be used to assess the relative affinity of different metals for the protein. Additionally, to identify an endogenous metal ligand that may have been bound to PRL-1 during expression in the cells, ICP-MS was used to look for the presence of a transition metal from the first two rows in the periodic table as well as other common biologically relevant metals. […] On average 500 μM Ni-purified protein samples were digested in nitric acid for 16 h at 70° C. were determined to contain approximately 180 μM Ni, yielding a Ni to protein stoichiometry of 1:2.7+/−0.7. Zn was also detected in the Ni-purified samples at approximately 60 μM. […] Because ICP-MS analysis is conducted in a flow of Ar and the most abundant isotope of Ar has the same mass as Ca, Ca binding cannot be determined from the primary mass signal. Nonetheless, because a much higher amount of Ca was present in the cell culture media compared to Zn and yet the ICP-MS signal corresponds largely to zinc, the protein is unlikely to bind calcium.
# [3] = ICP-MS of metal bound to purified PRL-1 (Zn); assay type: binding
# Procedure: as §1
# To investigate our hypothesis that the chromophore arises from protein abstraction of the metal from the charged IMAC matrix, samples were subjected to ICP-MS for semi-quantitative analysis. […] On average 500 μM Ni-purified protein samples were digested in nitric acid for 16 h at 70° C. were determined to contain approximately 180 μM Ni, yielding a Ni to protein stoichiometry of 1:2.7+/−0.7. Zn was also detected in the Ni-purified samples at approximately 60 μM. […]
# [4] = Metal displacement from Ni-purified PRL-1 followed by UV-Vis (BME, imidazole, EDTA, guanidinium hydrochloride/heat); assay type: physicochemical
# Procedure: UV-Vis absorption spectra were used to measure the concentration of the PRL-1 protein. Briefly, the concentrations of purified PRL-1 analogs were measured at 280 nm and calculated using an extinction coefficient of 19420 M^−1 cm^−1. Because of possible metal-protein absorption interferences in the high 200 nm region, the validity of the UV-Vis quantification method was confirmed by the Bradford method. Spectra of PRL-1 analogs at concentrations of 10, 5, 2.5, and 1.25 mg/mL were collected on a Cary 100 UV-Vis spectrophotometer from 800 to 200 nm. […] The resulting spectra were resolved and peak positions were evaluated using GRAMS/AI 7.00 software. Three methods were aimed at metal displacement. In the first, PRL-1-WT (e.g., wild type) samples were reduced using 20 mM β-mercaptoethanol (BME), and imidazole was added to a concentration of 10 mM. For 0.5 mM protein samples, this corresponds to 400-fold solution excess of BME to compete with the two C-terminal cysteine thiols and a 200-fold solution excess of imidazole to compete with the single C-terminal histidine imidazole side chain. New baselines were taken and the spectra recalculated. In the second method, baselines were recalculated for buffer containing 100 μM EDTA, and the spectrum for the PRL-1-WT sample that was exchanged ten million fold in 100 μM EDTA was recorded. Finally, 10 mg/mL protein samples were denatured in 5.6 M guanidinium hydrochloride and heated to 90° C., new baselines were taken, and the spectra were collected at 0, 2, 4 and 6 hrs.
# [5] = Solubility of metal-free protein; assay type: physicochemical; details: metal-free (apo) protein
molecule,measurement,setting,value
NC(=O)C[C@@H](N)C(=O)N[C@H](CS)C(=O)N[C@H](CS)C(=O)O [NCC] (H-[dN]-[dC]-[dC]-OH),absorbance spectrum after incubation with metal-charged IMAC resin,[1]; synthetic tripeptides,mimics that observed for the peptide-metal complex embedded in PRL-1
B1,Ni bound (ICP-MS),[2],approximately 120 μM
same,Ni content (ICP-MS),"[2]; on average 500 μM Ni-purified protein, nitric acid digest 16 h at 70° C.",approximately 180 μM
same,Zn detected (ICP-MS),[3]; Ni-purified samples,approximately 60 μM
same,Zn present (ICP-MS),[3]; purified using Zn-IMAC,270 µM
same,"loss of peaks at 318, 421 and 526 nm (Ni release)",[4]; 5.6 M guanidinium hydrochloride at 90° C.,only gradually disappear over 6 hrs
same,effect of 10 mM imidazole on absorption profile,[4]; Ni-purified,no effect
same,effect of ten million-fold exchange into 100 μM EDTA on spectrum,[4]; Ni-purified,little effect
same,effect of 20 mM BME on absorption profile,"[4]; Ni-purified, pH 7.4",did not alter
same,reversibility of Ni binding,[4]; pH 7.4,irreversible
B2,Ni bound (ICP-MS),[2],~60 µM
same,decrease in signal by absorption spectroscopy,"[1]; relative to wild-type PRL-1, Ni-purified",20%
B3,Ni bound (ICP-MS),[2],No Ni was detected
B4,solubility,[5],poorly soluble
